Reference: patent US20130071366A1 (CANCER RESEARCH TECHNOLOGY, published 2013)

Target: T1, Insulin-like Growth Factor II (IGF-II), recombinant human (human, UniProt P01344 25-91, biotinyl group (site not stated) when immobilised for SPR; not biotinylated as SPR analyte or in ITC)
T1 construct: mature; Bought as Biotinyl-IGF-II from GroPep for immobilisation on streptavidin chips; also called IGF2; Biotinyl-IGF-II
Assay: SPR, steady-state KD relative to wild type domain 11

T1 sequence (P01344 25-91): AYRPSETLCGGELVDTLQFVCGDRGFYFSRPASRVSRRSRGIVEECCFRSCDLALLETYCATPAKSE

Binder | Relative Affinity
IGF2R domain 11 with D at position 1544 (receptor, Secreted from Pichia pastoris; also called E1544D) NEHDDCQVTNPSTGHLFDLSSLSGRAGFTAAYSDKGLVYMSICGENENCPPGVGACFGQTRISVGKANKRLRYVDQVLQLVYKDGSPCPSKSGLSYKSVISFVCRPEAGPTNRPMLISLDKQTCTLFFSWHTPLACEQATHHHHHH | 0.48 fold vs wild type domain 11
IGF2R domain 11 with F at position 1544 (receptor, Secreted from Pichia pastoris; also called E1544F) NEHDDCQVTNPSTGHLFDLSSLSGRAGFTAAYSFKGLVYMSICGENENCPPGVGACFGQTRISVGKANKRLRYVDQVLQLVYKDGSPCPSKSGLSYKSVISFVCRPEAGPTNRPMLISLDKQTCTLFFSWHTPLACEQATHHHHHH | 1.83 fold vs wild type domain 11
IGF2R domain 11 with G at position 1544 (receptor, Secreted from Pichia pastoris; also called E1544G) NEHDDCQVTNPSTGHLFDLSSLSGRAGFTAAYSGKGLVYMSICGENENCPPGVGACFGQTRISVGKANKRLRYVDQVLQLVYKDGSPCPSKSGLSYKSVISFVCRPEAGPTNRPMLISLDKQTCTLFFSWHTPLACEQATHHHHHH | 0.57 fold vs wild type domain 11
IGF2R domain 11 with H at position 1544 (receptor, Secreted from Pichia pastoris; also called E1544H) NEHDDCQVTNPSTGHLFDLSSLSGRAGFTAAYSHKGLVYMSICGENENCPPGVGACFGQTRISVGKANKRLRYVDQVLQLVYKDGSPCPSKSGLSYKSVISFVCRPEAGPTNRPMLISLDKQTCTLFFSWHTPLACEQATHHHHHH | 3.07 fold vs wild type domain 11
IGF2R domain 11 with I at position 1544 (receptor, Secreted from Pichia pastoris; also called E1544I) NEHDDCQVTNPSTGHLFDLSSLSGRAGFTAAYSIKGLVYMSICGENENCPPGVGACFGQTRISVGKANKRLRYVDQVLQLVYKDGSPCPSKSGLSYKSVISFVCRPEAGPTNRPMLISLDKQTCTLFFSWHTPLACEQATHHHHHH | 2.43 fold vs wild type domain 11
IGF2R domain 11 with L at position 1544 (receptor, Secreted from Pichia pastoris; also called E1544L) NEHDDCQVTNPSTGHLFDLSSLSGRAGFTAAYSLKGLVYMSICGENENCPPGVGACFGQTRISVGKANKRLRYVDQVLQLVYKDGSPCPSKSGLSYKSVISFVCRPEAGPTNRPMLISLDKQTCTLFFSWHTPLACEQATHHHHHH | 2.02 fold vs wild type domain 11
IGF2R domain 11 with M at position 1544 (receptor, Secreted from Pichia pastoris; also called E1544M) NEHDDCQVTNPSTGHLFDLSSLSGRAGFTAAYSMKGLVYMSICGENENCPPGVGACFGQTRISVGKANKRLRYVDQVLQLVYKDGSPCPSKSGLSYKSVISFVCRPEAGPTNRPMLISLDKQTCTLFFSWHTPLACEQATHHHHHH | 2.75 fold vs wild type domain 11
IGF2R domain 11 with N at position 1544 (receptor, Secreted from Pichia pastoris; also called E1544N) NEHDDCQVTNPSTGHLFDLSSLSGRAGFTAAYSNKGLVYMSICGENENCPPGVGACFGQTRISVGKANKRLRYVDQVLQLVYKDGSPCPSKSGLSYKSVISFVCRPEAGPTNRPMLISLDKQTCTLFFSWHTPLACEQATHHHHHH | 0.88 fold vs wild type domain 11
IGF2R domain 11 with P at position 1544 (receptor, Secreted from Pichia pastoris; also called E1544P) NEHDDCQVTNPSTGHLFDLSSLSGRAGFTAAYSPKGLVYMSICGENENCPPGVGACFGQTRISVGKANKRLRYVDQVLQLVYKDGSPCPSKSGLSYKSVISFVCRPEAGPTNRPMLISLDKQTCTLFFSWHTPLACEQATHHHHHH | 0.49 fold vs wild type domain 11
IGF2R domain 11 with Q at position 1544 (receptor, Secreted from Pichia pastoris; also called E1544Q) NEHDDCQVTNPSTGHLFDLSSLSGRAGFTAAYSQKGLVYMSICGENENCPPGVGACFGQTRISVGKANKRLRYVDQVLQLVYKDGSPCPSKSGLSYKSVISFVCRPEAGPTNRPMLISLDKQTCTLFFSWHTPLACEQATHHHHHH | 3.87 fold vs wild type domain 11
IGF2R domain 11 with R at position 1544 (receptor, Secreted from Pichia pastoris; also called E1544R) NEHDDCQVTNPSTGHLFDLSSLSGRAGFTAAYSRKGLVYMSICGENENCPPGVGACFGQTRISVGKANKRLRYVDQVLQLVYKDGSPCPSKSGLSYKSVISFVCRPEAGPTNRPMLISLDKQTCTLFFSWHTPLACEQATHHHHHH | 7.33 fold vs wild type domain 11
IGF2R domain 11 with S at position 1544 (receptor, Secreted from Pichia pastoris; also called E1544S) NEHDDCQVTNPSTGHLFDLSSLSGRAGFTAAYSSKGLVYMSICGENENCPPGVGACFGQTRISVGKANKRLRYVDQVLQLVYKDGSPCPSKSGLSYKSVISFVCRPEAGPTNRPMLISLDKQTCTLFFSWHTPLACEQATHHHHHH | 5.24 fold vs wild type domain 11
IGF2R domain 11 with T at position 1544 (receptor, Secreted from Pichia pastoris; also called E1544T) NEHDDCQVTNPSTGHLFDLSSLSGRAGFTAAYSTKGLVYMSICGENENCPPGVGACFGQTRISVGKANKRLRYVDQVLQLVYKDGSPCPSKSGLSYKSVISFVCRPEAGPTNRPMLISLDKQTCTLFFSWHTPLACEQATHHHHHH | 1.72 fold vs wild type domain 11
IGF2R domain 11 with W at position 1544 (receptor, Secreted from Pichia pastoris; also called E1544W) NEHDDCQVTNPSTGHLFDLSSLSGRAGFTAAYSWKGLVYMSICGENENCPPGVGACFGQTRISVGKANKRLRYVDQVLQLVYKDGSPCPSKSGLSYKSVISFVCRPEAGPTNRPMLISLDKQTCTLFFSWHTPLACEQATHHHHHH | 1.94 fold vs wild type domain 11
IGF2R domain 11 with Y at position 1544 (receptor, Secreted from Pichia pastoris; also called E1544Y) NEHDDCQVTNPSTGHLFDLSSLSGRAGFTAAYSYKGLVYMSICGENENCPPGVGACFGQTRISVGKANKRLRYVDQVLQLVYKDGSPCPSKSGLSYKSVISFVCRPEAGPTNRPMLISLDKQTCTLFFSWHTPLACEQATHHHHHH | 1.8 fold vs wild type domain 11

Target: T1, Insulin-like Growth Factor II (IGF-II), …
Assay: as above
Remark: another data set of the same source
Method: […]. Values are the mean±S.E.M. of three separate experiments.
Kinetic analysis by Surface Plasmon Resonance (SPR) was conducted on a BIAcore 3000 biosensor (BIAcore, Uppsala, Sweden) at 25° C. in HBS-EP (10 mM HEPES, pH 7.4, 150 mM NaCl, 3 mM EDTA, 0.005% surfactant P20) at a flow rate of 40 μl/min. […] Kinetic experiments consisted of a two minute injection of analyte followed by a 100s dissociation phase in running buffer, after which the binding surface was regenerated with a 2 minute injection of 2 M MgCl₂. A blank flow cell was used for in-line reference subtraction of changes due to differences in refractive index of running buffer versus sample and a buffer-only injection was used to subtract instrument noise and drift. Injections were performed in duplicate for each concentration and in a randomised order. Kinetic parameters were determined by global fitting of sensorgrams to a two-state (conformational change) binding model using BIAevaluation software version 4.0.1. In all cases the minor component made an insignificant contribution to the overall affinity and as such only the kinetic parameters of the major binding component were used. For each interaction the dissociation affinity constant (KD) was also calculated by fitting of the response of each concentration at equilibrium to a steady-state affinity model using BIAevaluation. In order to investigate the influence of ionic strength, kinetic experiments were conducted in HBS-EP running buffers containing the desired NaCl concentration. In each case, analyte samples were made up in the appropriate running buffer prior to injection.
Following purification, the binding of each mutant construct to IGF2 was assessed by SPR and compared to the wild type domain 11.

Binder | Relative Affinity
IGF2R domain 11 G1619R (common human polymorphism) (receptor, Secreted from Pichia pastoris) NEHDDCQVTNPSTGHLFDLSSLSGRAGFTAAYSEKGLVYMSICGENENCPPGVGACFGQTRISVGKANKRLRYVDQVLQLVYKDGSPCPSKSGLSYKSVISFVCRPEARPTNRPMLISLDKQTCTLFFSWHTPLACEQATHHHHHH | 0.9 fold vs wild type domain 11
IGF2R domain 11 K1545A (receptor, Secreted from Pichia pastoris) NEHDDCQVTNPSTGHLFDLSSLSGRAGFTAAYSEAGLVYMSICGENENCPPGVGACFGQTRISVGKANKRLRYVDQVLQLVYKDGSPCPSKSGLSYKSVISFVCRPEAGPTNRPMLISLDKQTCTLFFSWHTPLACEQATHHHHHH | 0.36 fold vs wild type domain 11
IGF2R domain 11 Q1569A (receptor, Secreted from Pichia pastoris) NEHDDCQVTNPSTGHLFDLSSLSGRAGFTAAYSEKGLVYMSICGENENCPPGVGACFGATRISVGKANKRLRYVDQVLQLVYKDGSPCPSKSGLSYKSVISFVCRPEAGPTNRPMLISLDKQTCTLFFSWHTPLACEQATHHHHHH | 0.8 fold vs wild type domain 11
IGF2R domain 11 S1543A (receptor, Secreted from Pichia pastoris) NEHDDCQVTNPSTGHLFDLSSLSGRAGFTAAYAEKGLVYMSICGENENCPPGVGACFGQTRISVGKANKRLRYVDQVLQLVYKDGSPCPSKSGLSYKSVISFVCRPEAGPTNRPMLISLDKQTCTLFFSWHTPLACEQATHHHHHH | 0.39 fold vs wild type domain 11
IGF2R domain 11 S1596A (receptor, Secreted from Pichia pastoris) NEHDDCQVTNPSTGHLFDLSSLSGRAGFTAAYSEKGLVYMSICGENENCPPGVGACFGQTRISVGKANKRLRYVDQVLQLVYKDGAPCPSKSGLSYKSVISFVCRPEAGPTNRPMLISLDKQTCTLFFSWHTPLACEQATHHHHHH | 0.61 fold vs wild type domain 11
IGF2R domain 11 T1570A (receptor, Secreted from Pichia pastoris) NEHDDCQVTNPSTGHLFDLSSLSGRAGFTAAYSEKGLVYMSICGENENCPPGVGACFGQARISVGKANKRLRYVDQVLQLVYKDGSPCPSKSGLSYKSVISFVCRPEAGPTNRPMLISLDKQTCTLFFSWHTPLACEQATHHHHHH | 0.11 fold vs wild type domain 11
IGF2R domain 11 Y1542A (receptor, Secreted from Pichia pastoris) NEHDDCQVTNPSTGHLFDLSSLSGRAGFTAAASEKGLVYMSICGENENCPPGVGACFGQTRISVGKANKRLRYVDQVLQLVYKDGSPCPSKSGLSYKSVISFVCRPEAGPTNRPMLISLDKQTCTLFFSWHTPLACEQATHHHHHH | 0.16 fold vs wild type domain 11
